According to patent publication US20220153853A1 (JIANGSU HENGRUI MEDICINE, published 2022):
Read-outs that look alike come from different tables or passages of the source.

Legend:
[1] = molecular target: T1, human GCGR (full-length glucagon receptor of 477 amino acids) (human, UniProt P47871 26-477); assay: cell-based or functional assay
Mouse GCGR [2] = molecular target: T2, Mouse GCGR (mouse, UniProt Q61606 27-485); assay: cell-based or functional assay
[3] = molecular target: T1, human GCGR (full-length glucagon …); assay: cell ELISA on fixed CHO cells overexpressing GCGR
Protocol: (§1) The expression levels of GCGR were detected after two weeks of pressure screening, After the GCGR-overexpressing cells were fixed to the bottom of 96-well plate, the antibodies were added and the signal strength was used to determine the binding activity of the antibody to GCGR overexpressing CHO cells. The binding abilities of the antibody to the three species of GCGRs were detected with the same binding assay. As an example, the binding of the GCGR antibodies to human GCGR was detected by an assay specifically described as follows:
(§2) The cells were seeded in a 96-well plate at a density of 0.9-1.0×10⁶/ml, 100 μl/well and cultured overnight. The supernatant was discarded, the plate was washed three times with PBS, 100 μl/well of cell immune fixed solution (Beyotime, Cat No. P0098) was added and fixed for an hour at room temperature, and washed four times with PBS. The liquid was discarded, 200 μl/well blocking solution (5% skim milk (BD skim milk, Cat Wo. 232100) diluted with PBS) was added, and incubated in an incubator at 37° C. for 3 hours for blocking. After the blocking was finished, the blocking solution was discarded, the plate was washed 3 times with PBST buffer (PBS comprising 0.05% tweenW-20, pH7.4), 50 μl/well of various concentrations of each of the test antibodies (antibodies purified from hybridoma, chimeric antibodies or humanized antibodies) diluted with sample dilution solution were added, and incubated in an incubator at 37° C. for 2 hours. After the incubation was finished, the plate was washed 3 times with PBST, 50 μl/well of HRP-labeled goat anti-mouse secondary antibody (JacksoW ImmuWo Research, Cat No. 115-035-003) or goat anti-human secondary antibody (JacksoW ImmuWo Research, Cat Wo. 109-035-003) diluted with sample dilution solution was added, and incubated at 37° C. for 1 hour. The plate was washed 3 times with PBST, 50 μl/well of TMB chromogenic substrate (KPL, Cat Wo. 52-00-03) was added, incubated at room temperature for 10 min, and 50 μl/well of 1M H₂SO4 was added to stop the reaction. The absorbance value was read by a microplate reader (Thermo scientific Multiskan MK3) at a wavelength of 450 nm, and the data was analyzed with GraphPad Prism 5. The binding of GCGR chimeric antibodies to GCGR-overepressing CHO cells was calculated as EC50 value.

Mouse GCGR [4] = molecular target: T2, Mouse GCGR; assay: cell ELISA on fixed CHO cells overexpressing GCGR
Protocol: as §1, §2

Cynomolgus monkey GCGR [5] = molecular target: T3, Cynomolgus monkey GCGR (cynomolgus monkey); assay: cell ELISA on fixed CHO cells overexpressing GCGR
T3 construct: whole, on cells; also called cynomolgus GCGR
Protocol: as §1, §2

[6] = molecular target: T1, human GCGR (full-length glucagon …); assay: competitive cell ELISA on GCGR-overexpressing CHO cells, biotin-labeled against unlabeled antibody; competitor ch1808
Source text: (§3) The GCGR epitopes bound by GCGR antibodies were classified by ELISA assay, in which the competitive binding of the biotin-labeled antibodies with different concentrations of the standard antibody to GCGR-overexpressing CHO cells was detected. The method for preparing the cell plate was the same as that of Test Example 1. The following specific procedures are as follows: The antibody was labelled according to the biotin labeling kit instructions (Dojindo
(§4) Molecular Technologies, Inc. LK03). The unlabeled test antibody was diluted to a range of concentrations with sample dilution solution in a 96-well cell plate, 50 μl/well, and incubated at 37° C. for 2 hours. After the incubation was finished, the plate was washed 3 times with PBST, 50 μl/well of biotin-labeled antibody diluted with sample dilution solution was added, at a concentration of 0.1 μg/ml, incubated at 37° C. for 2 hours, the plate was washed 3 times with PBST, and HRP-labeled goat-anti-human secondary antibody (JacksoW ImmuWo Research, Cat Wo. 109-035-003) was added, and incubated at 37° C. for 1 hour. The plate was washed 3 times with PBST, 50 μl/well of TMB chromogenic substrate (KPL, Cat No. 52-00-03) was added, incubated at room temperature for 10 min, and 50 μl/well of 1M H₂SO₄ was added to stop the reaction. The absorbance value was read by a microplate reader (Thermo scientific Multiskan MK3) at a wavelength of 450 nm, and the data was analyzed with GraphPad Prism 5.

[7] = molecular target: T1, human GCGR (full-length glucagon …); assay: competitive cell ELISA on GCGR-overexpressing CHO cells, biotin-labeled against unlabeled antibody; competitor hu1803-9
Source text: as §3, §4

[8] = molecular target: T1, human GCGR (full-length glucagon …); assay: competitive cell ELISA on GCGR-overexpressing CHO cells, biotin-labeled against unlabeled antibody; competitor hu1810-12
Source text: as §3, §4

[9] = molecular target: T1, human GCGR (full-length glucagon …); assay: cell-based or functional assay; remark: listed apart in the source
[10] = molecular target: T1, human GCGR (full-length glucagon …); assay: cell-based or functional assay; remark: listed apart in the source
Mouse GCGR [11] = molecular target: T2, Mouse GCGR; assay: cell-based or functional assay; remark: listed apart in the source
Cynomolgus monkey GCGR [12] = molecular target: T3, Cynomolgus monkey GCGR; assay: cell-based or functional assay

T2 sequence (Q61606 27-485): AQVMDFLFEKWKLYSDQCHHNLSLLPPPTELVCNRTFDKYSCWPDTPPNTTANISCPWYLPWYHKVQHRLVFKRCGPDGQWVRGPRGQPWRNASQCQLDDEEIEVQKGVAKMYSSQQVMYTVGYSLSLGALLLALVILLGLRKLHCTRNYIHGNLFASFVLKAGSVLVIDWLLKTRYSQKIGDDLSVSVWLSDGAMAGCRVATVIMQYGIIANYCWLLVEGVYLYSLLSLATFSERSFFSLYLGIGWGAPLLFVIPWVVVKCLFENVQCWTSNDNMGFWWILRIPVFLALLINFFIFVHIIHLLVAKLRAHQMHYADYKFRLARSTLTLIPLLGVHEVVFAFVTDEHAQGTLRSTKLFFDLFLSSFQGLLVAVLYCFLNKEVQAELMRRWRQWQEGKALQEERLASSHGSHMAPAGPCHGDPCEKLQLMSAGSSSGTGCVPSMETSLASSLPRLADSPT
T1 sequence (P47871 26-477 limits assumed): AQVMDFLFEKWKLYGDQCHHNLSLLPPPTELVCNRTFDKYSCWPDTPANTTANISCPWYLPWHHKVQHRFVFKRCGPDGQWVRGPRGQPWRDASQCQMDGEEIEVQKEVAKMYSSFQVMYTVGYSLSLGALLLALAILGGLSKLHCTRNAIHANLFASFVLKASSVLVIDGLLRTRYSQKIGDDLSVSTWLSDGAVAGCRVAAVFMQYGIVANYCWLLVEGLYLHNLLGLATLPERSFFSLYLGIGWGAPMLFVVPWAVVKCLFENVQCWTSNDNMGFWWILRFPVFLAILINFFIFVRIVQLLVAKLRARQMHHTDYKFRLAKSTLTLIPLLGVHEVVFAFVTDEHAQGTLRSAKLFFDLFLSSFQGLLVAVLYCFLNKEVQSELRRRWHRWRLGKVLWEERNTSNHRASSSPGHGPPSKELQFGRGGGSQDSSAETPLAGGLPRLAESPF

IC50 [1] [nM]	Imax [1] [%]	IC50 (Mouse GCGR [2]) [nM]	Imax (%) (Mouse GCGR [2])	EC50 [3] [nM]	EC50 (Mouse GCGR [4]) [nM]	EC50 (Cynomolgus monkey GCGR [5]) [nM]	competition efficiency IC % [6] [%]	competition efficiency IC % [7] [%]	competition efficiency IC % [8] [%]	IC50 [9] [nM]	Imax [9] [%]	IC50 [10] [nM]	Imax (%) [10] [%]	IC50 (Mouse GCGR [11]) [nM]	Imax (%) (Mouse GCGR [11])	IC50 (Cynomolgus monkey GCGR [12]) [nM]	Imax (%) (Cynomolgus monkey GCGR [12])	Binder
105	98	26.6	100	0.677	1.02	0.536	100	46.6	54.3									ch1808 (antibody, human IgG4 S228P, kappa, F234A L235A, V domains shown, IgG4-AA / kappa chimeric antibody) VH: QVQLQQSGAELARPGASVKLSCKASGDTFTTNGISWVKQRIGQGLEWIGEIYPRSGNTYYNENFKGKATLTADKSSTTAYMELRRLTSEDSAVYFCARSITSVIGADYFDYWGQGTTLTVSS VL: DIQMTQTTSSLSASLGDRVTISCRASQDISNYLNWYQKKPDGTVKLLIYYSSTLHSGVPSRFSGSGSGTDYSLTISNLEQEDIATYFCQQGNTFPWTFGGGTKLEIKR
							100	100	100	78.4	100	54	100	11.2	100	220	100	hu1803-9 (antibody, human IgG4 S228P, kappa, F234A L235A, V domains shown, IgG4-AA / kappa humanized antibody; also called hu1803_VH.1 + hu1803_VL.1B; GCGR monoclonal antibody) VH: EVQLVQSGAEVKKPGASVKVSCKASGYTFTDYWIEWVRQAPGQGLEWMGEILPGSTYTNYNEKFKGRVTMTRDTSTSTVYMELSSLRSEDTAVYYCARGLSTLMAVDYFDYWGQGTTVTVSS VL: DIQMTQSPSSLSASVGDRVTITCRASQDISNYLNWYQQKPGKAVKLLIYYSSTLHSGVPSRFSGSGSGTDYTLTISSLQPEDFATYYCQQTNIFPWTFGGGTKVEIKR
95	91	18	100	0.297	0.343	0.358	100	100	100									ch1805 (antibody, human IgG4 S228P, kappa, F234A L235A, V domains shown, IgG4-AA / kappa chimeric antibody; also called chimeric antibody of clone 1805) VH: EVQLQQSGPELVKPGASVKIPCKTSGYTFTDYNMDWVKQSHGRSLEWIGSIDPDNGGTIYNQKFKGKATLTVDKSSSTAYMELRSLTSEDTAVYYCTRDYYGSSSWFAYWGQGTLVTVSA VL: DVVMTQSPATLSVTPGDRVSLSCRASQSISDYLHWYQQKSHESPRLLIKYASQSISGIPSRFSGSGSGSDFTLSINSVEPEDVGVYYCQNGHSFPYTFGGGTKLEIKR
							100	100	100	75.9	99.7			17.5	97	886	99	hu1810-12 (antibody, human IgG4 S228P, kappa, F234A L235A, V domains shown, IgG4-AA / kappa humanized antibody; also called hu1810_VH.1C + hu1810_VL.1B) VH: QVQLVQSGAEVKKPGSSVKVSCKASGGTFSNYAISWVKQAPGQGLEWIGEIYPTSGNTYYNEKFKGKATLTADRSTSTMYMELSSLRSEDTAVYYCASGVITTVVSTDYFDYWGQGTLVTVSS VL: DIQMTQSPSSLSASVGDRVTITCRASLDISNYLNWYQLKPGKAVKLLIYYTSTLHSGVSSRFSGSGSGTEYTLTISSLQPEDFATYYCQQGNMVPYTFGGGTKVEIKR
